Experimental findings from article doi:10.64898/2025.12.17.694949, “Chiral inversion mutagenesis identifies geometrically constrained residues within self-associating low-complexity domains” (bioRxiv, 2025) are described below.

A short description of series [1]: turbidity (absorbance at 395 nm); untagged recombinant EMD LCD 3xPro library, 60 μM LCD, transferred from denaturing to native Tris buffer (n=3). The conditions noted are these: other: turbidity (absorbance at 395 nm).
For series [2], the target named is T1, wild-type glutathione S-transferase (GST)-EMD LCD fusion protein.
T1 sequence (P50402 whole entry, species assumed, looked up): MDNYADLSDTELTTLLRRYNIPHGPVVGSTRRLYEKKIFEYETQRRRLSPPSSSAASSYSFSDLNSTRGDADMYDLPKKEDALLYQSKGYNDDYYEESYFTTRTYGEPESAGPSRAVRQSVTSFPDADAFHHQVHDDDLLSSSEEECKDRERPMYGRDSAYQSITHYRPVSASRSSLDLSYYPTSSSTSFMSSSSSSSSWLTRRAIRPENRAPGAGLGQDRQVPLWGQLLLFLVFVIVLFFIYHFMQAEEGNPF
The series can be described thus: GST pulldown, Western blot against HA, densitometry. The conditions noted are these: HA-tagged 3xPro EMD LCD prey 50 nM; n=3; parent: est. 0.26; read off a plot. (A western blot detects proteins with antibodies after separation by electrophoresis.)

The target is the same in series [3]. The series can be described thus: pull-down; wild-type GST-EMD LCD immobilized on glutathione resin, incubated with HA-tagged EMD LCD prey (50 nM), washed with binding buffer, eluted with GSH; Western blot against HA in eluent relative to input, densitometry (n=3).
The target is the same in series [4]. The series is described as above. This is another data set of the same source.
The target of series [5] is P50402. The series can be described thus: turbidity (absorbance at 395 nm); untagged semi-synthetic EMD LCD 3xD ChIM library, 50 μM LCD (n=3). To be noted: other: turbidity (absorbance at 395 nm).
Series [6] concerns the molecule itself. The series is described as above.
For series [7], the target named is P07196. The series can be described thus: turbidity (absorbance at 395 nm); synthetic NEFL head domain 5xD ChIM library, 100 μM LCD (n=3). To be noted: other: turbidity (absorbance at 395 nm).

Like-named read-outs stand apart in the source and are kept apart here.

As for untagged EMD LCD 3xPro_(188-191), the “fold decrease in turbidity relative to wild-type” value in series [1] is “reduce turbidity by 107.6-, 16.6-, 34.7-, and 14.3-fold, respectively”.

As for “HA-tagged EMD LCD, wild-type (recombinant) 3xPro 178-181 (insertion, not substitution: ...aa178(Pro)aa179(Pro)aa180(Pro)aa181...)”, the response in series [2] amounted to 0.21 Fraction IP.

untagged EMD LCD 3xPro_(203-206): the “fold decrease in turbidity relative to wild-type” value in series [1] was “reduce turbidity by 107.6-, 16.6-, 34.7-, and 14.3-fold, respectively”.

Turning to “HA-tagged EMD LCD, wild-type (recombinant) 3xPro 203-205 (label as printed; insertion of three prolines, not substitution)”, the response in series [2] was 0.18 Fraction IP.

Consider “HA-tagged EMD LCD 3xPro_(188-191) (domain or fragment)”, for which, in series [3], the fold reduction of pulldown relative to wild-type came to 5 fold.

Regarding “HA-tagged EMD LCD 3xPro_(198-201) (domain or fragment)”, the fold reduction of pulldown relative to wild-type in series [3] amounted to 3.4 fold.

For untagged EMD LCD 3xPro_(198-201), the “fold decrease in turbidity relative to wild-type” value in series [1] was “reduce turbidity by 107.6-, 16.6-, 34.7-, and 14.3-fold, respectively”.

In turn, “HA-tagged EMD LCD 3xPro_(193-196) (domain or fragment)” registered a fold reduction of pulldown relative to wild-type in series [3] of 5.9 fold.

With “HA-tagged EMD LCD 3xPro_(183-186) (domain or fragment)”, the fold reduction of pulldown relative to wild-type in series [3] is 2.2 fold.

As to “HA-tagged EMD LCD, wild-type (recombinant) 3xPro 208-211 (insertion, not substitution: ...aa208(Pro)aa209(Pro)aa210(Pro)aa211...)”, the response in series [2] was found to be 0.21 Fraction IP.

Take untagged EMD LCD 3xPro_(183-186): in series [1], the “fold decrease in turbidity relative to wild-type” value is given as “modestly reduces turbidity by 2.8-fold relative to wild-type”.

Take untagged EMD LCD 3xPro_(193-196): the “fold decrease in turbidity relative to wild-type” value in series [1] was “reduce turbidity by 107.6-, 16.6-, 34.7-, and 14.3-fold, respectively”.

B1: HA-tagged semi-synthetic EMD LCD 3xD_(191-195) (domain or fragment)
chain: RRLSPPSSSAASSYSFSDLNSTRGDADMYDLPKKEDALLYQSKGYNDDYYEESYFTTRTYGEPESAGPSRAVRQSVTSFPDADAFHHQVHDDDLLSSSEEECKDRERPMYGRDSAYQSITHYRPVSASRSSLDLSYYPTSSSTCFMSSSSSSSSWLTRRAIRPENRAPGAGLGQER
modifications: three D-amino acids at alternating positions within 191-195
Consider B1, for which the fold reduction of pulldown relative to wild-type in series [4] was determined as 8.8 fold.

B2: HA-tagged semi-synthetic EMD LCD 3xD_(207-211) (domain or fragment)
chain: B1 chain
modifications: three D-amino acids at alternating positions within 207-211
With B2, in series [4], the fold reduction of pulldown relative to wild-type stood at 1.8 fold.

B3: HA-tagged semi-synthetic EMD LCD 3xD_(195-199) (domain or fragment)
chain: B1 chain
modifications: three D-amino acids at alternating positions within 195-199
In the case of B3, in series [4], the fold reduction of pulldown relative to wild-type is 7.9 fold.

B4: untagged semi-synthetic EMD LCD 3xD_(195-199) (protein)
chain: B1 chain
As for B4, the “fold decrease in turbidity relative to wild-type” value in series [5] is 13.3-, 2.8-, and 2.1-fold decreases in turbidity.

B5: untagged semi-synthetic EMD LCD 3xD_(199-203) (protein)
chain: B1 chain
In the case of B5, the “fold decrease in turbidity relative to wild-type” value in series [5] is 13.3-, 2.8-, and 2.1-fold decreases in turbidity.

B6: untagged semi-synthetic EMD LCD 3xD_(203-207) (protein)
chain: B1 chain
Take B6: the “fold decrease in turbidity relative to wild-type” value in series [5] was “displays a modest 1.4-fold decrease in turbidity”.

B7: HA-tagged semi-synthetic EMD LCD 3xD_(211-215) (domain or fragment)
chain: B1 chain
modifications: three D-amino acids at alternating positions within 211-215
On to B7, for which, in series [4], the fold reduction of pulldown relative to wild-type turned out to be 1.7 fold.

B8: HA-tagged semi-synthetic EMD LCD 3xD_(203-207) (domain or fragment)
chain: B1 chain
modifications: three D-amino acids at alternating positions within 203-207
In turn, B8 yielded a fold reduction of pulldown relative to wild-type in series [4] of 3.6 fold.

B9: untagged semi-synthetic EMD LCD 3xD_(191-195) (protein)
chain: B1 chain
In the case of B9, the “fold decrease in turbidity relative to wild-type” value in series [5] was 13.3-, 2.8-, and 2.1-fold decreases in turbidity.

B10: untagged semi-synthetic EMD LCD (residues 46-221), all L- wild-type (domain or fragment, UniProt P50402 46-221, looked up)
chain: B1 chain
notes: Emerin (EMD) low-complexity domain, residues 46-221 (P1 46-188 recombinant, P2 189-221 synthetic); P2 made on Rink amide resin (C-terminal amide surmised); source: RP-HPLC purified
Turning to B10, the binding result in series [6] was “binds”.

B11: HA-tagged semi-synthetic EMD LCD 3xD_(199-203) (domain or fragment)
chain: B1 chain
modifications: three D-amino acids at alternating positions within 199-203
Molecule B11 displayed a fold reduction of pulldown relative to wild-type in series [4] of 6.2 fold.

B12: synthetic NEFL head domain 5xD_(22-30) (protein)
chain: SSFSYEPYYSTSYKRRYVETPRVHISSVRCGYSTARSAYSSYSAPVSSSLSVRRSYSSSSGSLMPSLENLELS
Turning to B12, the “fold decrease in turbidity relative to wild-type” value in series [7] is “with 9.1-fold and 20-fold decreases in turbidity relative to wild-type, respectively”.

B13: synthetic NEFL head domain 5xD_(33-41) (protein)
chain: B12 chain
B13: the “fold decrease in turbidity relative to wild-type” value in series [7] was “with 9.1-fold and 20-fold decreases in turbidity relative to wild-type, respectively”.

B14: synthetic NEFL head domain 5xD_(43-51) (protein)
chain: B12 chain
In the case of B14, the “fold decrease in turbidity relative to wild-type” value in series [7] is “with 2.7-fold, 1.6-fold, and 1-fold relative decreases in turbidity, respectively”.

B15: synthetic NEFL head domain 5xD_(63-71) (protein)
chain: B12 chain
Consider B15, for which the “fold decrease in turbidity relative to wild-type” value in series [7] was “with 2.7-fold, 1.6-fold, and 1-fold relative decreases in turbidity, respectively”.

B16: synthetic NEFL head domain 5xD_(53-63) (protein)
chain: B12 chain
For the molecule B16, the “fold decrease in turbidity relative to wild-type” value in series [7] was “with 2.7-fold, 1.6-fold, and 1-fold relative decreases in turbidity, respectively”.
